This is an account of results in paper PMC4207752 (2014).

The test concerns the target F-actin (skeletal muscle) (Oryctolagus cuniculus, UniProt P68135). The test is described as follows: co-sedimentation assay.

B1: dystrophin N-ABD K18N 1-246 (protein)
chain: MLWWEEVEDCYEREDVQNKTFTKWVNAQFSKFGKQHIENLFSDLQDGRRLLDLLEGLTGQKLPKEKGSTRVHALNNVNKALRVLQNNNVDLVNIGSTDIVDGNHKLTLGLIWNIILHWQVKNVMKNIMAGLQQTNSEKILLSWVRQSTRNYPQVNVINFTTSWSDGLALNALIHSHRPDLFDWNSVVCQQSATQRLEHAFNIARYQLGIEKLLDPEDVDTTYPDKKSILMYITSLFQVLPQQVSIE
As for B1, the Kd (commonly the equilibrium constant for the complex coming apart) was around 45 µM.
